This assay deals with GST-Smad4-linker-MH2. The experiment in a line: GST pull-down, immunoblot band quantification. The conditions noted are these: HEK293T cell lysate; n=3; read off a plot. (In general: Immunoblotting shows a protein as a band on a membrane.)

Substance Arl15-WT-GFP A86L came in with an other: relative amount of Arl15-AL-GFP pulled down of 1.1.
